Source: patent US20050164323

What was measured:
[1] = target: T1, AFRRTSLAGGG (SEQ ID NO: 44)
T1 chain: AFRRTSLAGGG

[2] = target: T2, AKIQASFRGHM (SEQ ID NO: 20)
T2 chain: AKIQASFRGHM

[3] = target: T3, ALGKRTAKYRW (SEQ ID NO: 45)
T3 chain: ALGKRTAKYRW

[4] = target: T4, APKRGSILSKP (SEQ ID NO: 35)
T4 chain: APKRGSILSKP

[5] = target: T5, ATFKKTFKHLL (SEQ ID NO: 24)
T5 chain: ATFKKTFKHLL

[6] = target: T6, DIKRLTPRFTL (SEQ ID NO: 34)
T6 chain: DIKRLTPRFTL

[7] = target: T7, EEPVLTLVDEA (SEQ ID NO: 41)
T7 chain: EEPVLTLVDEA

[8] = target: T8, ETKKQSFKQTG (SEQ ID NO: 33)
T8 chain: ETKKQSFKQTG

[9] = target: T9, FARKGSLRQKN (SEQ ID NO: 6)
T9 chain: FARKGSLRQKN

[10] = target: T10, GKRRPSRLVAL (SEQ ID NO: 58)
T10 chain: GKRRPSRLVAL

[11] = target: T11, GTFRSSIRRLS (SEQ ID NO: 49)
T11 chain: GTFRSSIRRLS

[12] = target: T12, ITRKRSGEAAV (SEQ ID NO: 40)
T12 chain: ITRKRSGEAAV

[13] = target: T13, IYRASYYRKGG (SEQ ID NO: 27)
T13 chain: IYRASYYRKGG

[14] = target: T14, KAFRDTFRLLL (SEQ ID NO: 22)
T14 chain: KAFRDTFRLLL

[15] = target: T15, KFRTPSFLKKS (SEQ ID NO: 26)
T15 chain: KFRTPSFLKKS

[16] = target: T16, KIQASFRGHMA (SEQ ID NO: 18)
T16 chain: KIQASFRGHMA

[17] = target: T17, … (SEQ ID NO: 16)
T17 chain: KKRFSFKKSFK

[18] = target: T18, KPFKLSGLSFK (SEQ ID NO: 43)
T18 chain: KPFKLSGLSFK

[19] = target: T19, KRRQISIRGIV (SEQ ID NO: 47)
T19 chain: KRRQISIRGIV

[20] = target: T20, KTRKISQSAQT (SEQ ID NO: 52)
T20 chain: KTRKISQSAQT

[21] = target: T21, KTRRLSAFQQG (SEQ ID NO: 28)
T21 chain: KTRRLSAFQQG

[22] = target: T22, LMRRNSVTPLA (SEQ ID NO: 39)
T22 chain: LMRRNSVTPLA

[23] = target: T23, LRQLRSPRRTQ (SEQ ID NO: 51)
T23 chain: LRQLRSPRRTQ

[24] = target: T24, LSRTLSVAAKK (SEQ ID NO: 19)
T24 chain: LSRTLSVAAKK

[25] = target: T25, MRRSKSPADSA (SEQ ID NO: 37)
T25 chain: MRRSKSPADSA

Measured: phosphorylation of the peptide spot (32P, peptide array)

B1: PKC-θ kinase domain (PKC-θ KD; amino acid residues 362 to 706), C-terminal hexa-histidine tag, expressed in E. coli (protein)
chain: MGPELNKERPSLQIKLKIEDFILHKMLGKGSFGKVFLAEFKKTNQFFAIKALKKDVVLMDDDVECTMVEKRVLSLAWEHPFLTHMFCTFQTKENLFFVMEYLNGGDLMYHIQSCHKFDLSRATFYAAEIILGLQFLHSKGIVYRDLKLDNILLDKDGHIKIADFGMCKENMLGDAKTNTFCGTPDYIAPEILLGQKYNHSVDWWSFGVLLYEMLIGQSPFHGQDEEELFHSIRMDNPFYPRWLEKEAKDLLVKLFVREPEKRLGVRGDIRQHPLFREINWEELERKEIDPPFRPKVKSPFDCSNFDKEFLNEKPRLSFADRALINSMDQNMFRNFSFMNPGMERLISHHHHHH
shown to be substrates for PKC-θ: all assays above
